# Article PMC9482650, “Quantitative fragmentomics allow affinity mapping of interactomes” (Nature Communications, 2022)
# T1: APBA2_2, Q99767
# T1 sequence (Q99767 654-744, limits assumed, looked up): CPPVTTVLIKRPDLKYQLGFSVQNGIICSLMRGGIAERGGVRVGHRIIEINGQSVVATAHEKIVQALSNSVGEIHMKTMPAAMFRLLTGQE
# T2: ARHGAP21, Q5T5U3
# T2 sequence (Q5T5U3 45-169, limits assumed, looked up): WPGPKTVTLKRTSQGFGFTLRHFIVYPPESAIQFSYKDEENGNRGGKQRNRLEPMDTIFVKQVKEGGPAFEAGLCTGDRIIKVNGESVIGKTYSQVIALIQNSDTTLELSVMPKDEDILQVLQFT
# T3: DFNB31_3, Q9P202
# T3 sequence (Q9P202 811-907, limits assumed, looked up): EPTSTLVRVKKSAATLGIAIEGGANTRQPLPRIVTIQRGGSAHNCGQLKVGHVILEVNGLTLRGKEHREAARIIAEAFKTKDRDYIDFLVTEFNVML
# T4: LIN7B, Q9HAP6
# T4 sequence (Q9HAP6 88-185, limits assumed, looked up): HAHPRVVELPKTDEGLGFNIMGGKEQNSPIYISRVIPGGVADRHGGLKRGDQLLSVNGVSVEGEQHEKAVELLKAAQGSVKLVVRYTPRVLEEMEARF
# T5: MPP2, Q14168
# T5 sequence (Q14168 180-250, limits assumed, looked up): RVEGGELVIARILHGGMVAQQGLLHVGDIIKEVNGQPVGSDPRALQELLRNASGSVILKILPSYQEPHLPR
# T6: NHERF3_1, Q5T2W1
# T6 sequence (Q5T2W1 4-100, limits assumed, looked up): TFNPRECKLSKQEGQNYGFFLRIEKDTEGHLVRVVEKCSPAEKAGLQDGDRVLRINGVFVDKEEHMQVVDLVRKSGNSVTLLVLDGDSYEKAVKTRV
# T7: NHERF3_3, Q5T2W1
# T7 sequence (Q5T2W1 238-333, limits assumed, looked up): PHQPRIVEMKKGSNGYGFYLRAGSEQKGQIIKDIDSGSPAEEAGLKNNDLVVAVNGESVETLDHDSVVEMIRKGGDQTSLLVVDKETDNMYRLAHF
# T8: RADIL, Q96JH8
# T8 sequence (Q96JH8 971-1071, limits assumed, looked up): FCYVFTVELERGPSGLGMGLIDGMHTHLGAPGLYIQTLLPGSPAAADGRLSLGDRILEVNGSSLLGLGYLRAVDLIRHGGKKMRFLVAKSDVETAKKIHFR
# T9: RHPN1, Q8TCX5
# T9 sequence (Q8TCX5 508-602, limits assumed, looked up): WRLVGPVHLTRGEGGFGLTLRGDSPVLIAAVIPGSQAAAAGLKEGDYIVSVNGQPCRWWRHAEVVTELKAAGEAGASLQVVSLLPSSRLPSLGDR
# T10: TIAM2, Q8IVF5
# T10 sequence (Q8IVF5 885-986, limits assumed, looked up): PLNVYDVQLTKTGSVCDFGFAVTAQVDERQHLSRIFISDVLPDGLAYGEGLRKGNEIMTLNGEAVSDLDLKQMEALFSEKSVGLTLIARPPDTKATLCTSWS
# What was measured:
# Test in all cases: holdup assay
# Parameters in all cases: key: below the threshold = too weak to quantify, mostly under pKd 3.1 to 4
# APBA2_2, Q99767 = molecular target: T1, APBA2_2, Q99767
# ARHGAP21, Q5T5U3 = molecular target: T2, ARHGAP21, Q5T5U3
# ARHGEF12, Q9NZN5-2 = molecular target: ARHGEF12, Q9NZN5-2
# Chain of ARHGEF12, Q9NZN5-2 (Q9NZN5 other isoform, or with tags, fused parts or gaps): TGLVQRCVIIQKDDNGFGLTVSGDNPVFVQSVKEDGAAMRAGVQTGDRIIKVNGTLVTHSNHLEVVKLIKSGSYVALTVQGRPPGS
# DFNB31_3, Q9P202 = molecular target: T3, DFNB31_3, Q9P202
# DLG1_1, Q12959 = molecular target: DLG1_1, Q12959
# DLG1_2, Q12959 = molecular target: DLG1_2, Q12959
# DLG2_2, Q15700 = molecular target: DLG2_2, Q15700
# Chain of DLG2_2, Q15700 (Q15700 189-283): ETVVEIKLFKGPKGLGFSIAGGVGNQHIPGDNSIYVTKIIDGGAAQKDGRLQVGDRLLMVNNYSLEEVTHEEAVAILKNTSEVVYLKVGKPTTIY
# DLG5_1, Q8TDM6 = molecular target: DLG5_1, Q8TDM6
# Chain of DLG5_1, Q8TDM6 (Q8TDM6 617-713): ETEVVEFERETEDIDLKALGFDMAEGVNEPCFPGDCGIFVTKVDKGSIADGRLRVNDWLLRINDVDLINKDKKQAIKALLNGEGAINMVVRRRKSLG
# GIPC2, Q8TF65 = molecular target: GIPC2, Q8TF65
# Chain of GIPC2, Q8TF65 (Q8TF65 112-203): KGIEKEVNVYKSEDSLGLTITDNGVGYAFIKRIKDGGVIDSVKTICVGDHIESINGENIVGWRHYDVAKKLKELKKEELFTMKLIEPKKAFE
# GRASP, Q7Z6J2 = molecular target: GRASP, Q7Z6J2
# Chain of GRASP, Q7Z6J2 (Q7Z6J2 96-193): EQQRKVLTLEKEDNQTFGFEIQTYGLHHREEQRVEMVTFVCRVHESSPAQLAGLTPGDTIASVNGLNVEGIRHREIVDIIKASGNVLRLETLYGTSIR
# GRID2IP_1, A4D2P6 = molecular target: GRID2IP_1, A4D2P6
# Chain of GRID2IP_1, A4D2P6 (A4D2P6 1-87): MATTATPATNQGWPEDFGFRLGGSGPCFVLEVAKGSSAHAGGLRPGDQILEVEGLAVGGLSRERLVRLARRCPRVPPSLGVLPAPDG
# Inadl_10, Q8NI35 = molecular target: Inadl_10, Q8NI35
# Chain of Inadl_10, Q8NI35 (Q8NI35 1673-1763): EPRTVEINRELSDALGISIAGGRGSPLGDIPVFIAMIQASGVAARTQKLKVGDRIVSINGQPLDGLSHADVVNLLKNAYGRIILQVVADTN
# Inadl_2, Q8NI35 = molecular target: Inadl_2, Q8NI35
# Chain of Inadl_2, Q8NI35 (Q8NI35 238-335): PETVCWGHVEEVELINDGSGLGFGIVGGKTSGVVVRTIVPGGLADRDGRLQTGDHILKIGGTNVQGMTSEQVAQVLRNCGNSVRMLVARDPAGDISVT
# Inadl_6, Q8NI35 = molecular target: Inadl_6, Q8NI35
# Chain of Inadl_6, Q8NI35 (Q8NI35 1058-1167): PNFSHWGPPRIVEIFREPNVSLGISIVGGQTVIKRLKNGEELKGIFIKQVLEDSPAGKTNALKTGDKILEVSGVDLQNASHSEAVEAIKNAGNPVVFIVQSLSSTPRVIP
# Inadl_8, Q8NI35 = molecular target: Inadl_8, Q8NI35
# Chain of Inadl_8, Q8NI35 (Q8NI35 1425-1530): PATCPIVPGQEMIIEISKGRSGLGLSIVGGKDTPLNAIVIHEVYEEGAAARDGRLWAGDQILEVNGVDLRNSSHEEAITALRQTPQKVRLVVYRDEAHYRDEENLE
# LDB3, O75112 = molecular target: LDB3, O75112
# Chain of LDB3, O75112 (O75112 1-94): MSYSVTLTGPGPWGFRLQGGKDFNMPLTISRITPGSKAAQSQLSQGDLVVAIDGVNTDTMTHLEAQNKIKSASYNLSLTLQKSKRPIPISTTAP
# LIN7B, Q9HAP6 = molecular target: T4, LIN7B, Q9HAP6
# MAGI2_2, Q86UL8 = molecular target: MAGI2_2, Q86UL8
# Chain of MAGI2_2, Q86UL8 (Q86UL8 410-522): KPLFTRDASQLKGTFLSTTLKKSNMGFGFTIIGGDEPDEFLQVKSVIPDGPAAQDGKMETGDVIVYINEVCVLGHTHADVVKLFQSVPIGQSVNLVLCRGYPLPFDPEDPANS
# MPP2, Q14168 = molecular target: T5, MPP2, Q14168
# NHERF3_1, Q5T2W1 = molecular target: T6, NHERF3_1, Q5T2W1
# NHERF3_3, Q5T2W1 = molecular target: T7, NHERF3_3, Q5T2W1
# NHERF4_1, Q86UT5-2 = molecular target: NHERF4_1, Q86UT5-2
# Chain of NHERF4_1, Q86UT5-2 (Q86UT5 other isoform, or with tags, fused parts or gaps): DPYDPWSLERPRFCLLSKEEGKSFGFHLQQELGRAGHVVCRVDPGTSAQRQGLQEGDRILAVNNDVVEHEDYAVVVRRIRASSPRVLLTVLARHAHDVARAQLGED
# PDLIM1, O00151 = molecular target: PDLIM1, O00151
# Chain of PDLIM1, O00151 (O00151 1-87): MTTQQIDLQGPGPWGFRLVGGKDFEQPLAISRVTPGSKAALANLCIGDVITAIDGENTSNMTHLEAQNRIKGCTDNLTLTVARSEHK
# PDZRN4_1, Q6ZMN7 = molecular target: PDZRN4_1, Q6ZMN7
# Chain of PDZRN4_1, Q6ZMN7 (Q6ZMN7 213-318): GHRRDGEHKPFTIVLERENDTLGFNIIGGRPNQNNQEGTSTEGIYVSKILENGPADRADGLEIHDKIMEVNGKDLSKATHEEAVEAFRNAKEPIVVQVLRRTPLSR
# RADIL, Q96JH8 = molecular target: T8, RADIL, Q96JH8
# RHPN1, Q8TCX5 = molecular target: T9, RHPN1, Q8TCX5
# TIAM2, Q8IVF5 = molecular target: T10, TIAM2, Q8IVF5
# [1] = plain residues with an end cap or a label only (N-terminal biotin on a linker: ttds)
# [2] = plain residues with an end cap or a label only (N-terminal biotin on a linker: ahx)
binder,measurement,setting,value
"DKDPHSETAL [TMIGD1, Q6UXZ0]",pKd,"APBA2_2, Q99767; [1]",below the threshold
same,pKd,"ARHGAP21, Q5T5U3; [1]",below the threshold
same,pKd,"ARHGEF12, Q9NZN5-2; [1]",4.17
same,pKd,"DFNB31_3, Q9P202; [1]",below the threshold
same,pKd,"DLG1_1, Q12959; [1]",3.77
same,pKd,"DLG1_2, Q12959; [1]",below the threshold
same,pKd,"DLG2_2, Q15700; [1]",below the threshold
same,pKd,"DLG5_1, Q8TDM6; [1]",below the threshold
same,pKd,"GIPC2, Q8TF65; [1]",below the threshold
same,pKd,"GRASP, Q7Z6J2; [1]",below the threshold
same,pKd,"GRID2IP_1, A4D2P6; [1]",below the threshold
same,pKd,"Inadl_10, Q8NI35; [1]",below the threshold
same,pKd,"Inadl_2, Q8NI35; [1]",below the threshold
same,pKd,"Inadl_6, Q8NI35; [1]",3.53
same,pKd,"Inadl_8, Q8NI35; [1]",below the threshold
same,pKd,"LDB3, O75112; [1]",below the threshold
same,pKd,"LIN7B, Q9HAP6; [1]",below the threshold
same,pKd,"MAGI2_2, Q86UL8; [1]",3.63
same,pKd,"MPP2, Q14168; [1]",below the threshold
same,pKd,"NHERF3_1, Q5T2W1; [1]",5.42
same,pKd,"NHERF3_3, Q5T2W1; [1]",below the threshold
same,pKd,"NHERF4_1, Q86UT5-2; [1]",3.88
same,pKd,"PDLIM1, O00151; [1]",below the threshold
same,pKd,"PDZRN4_1, Q6ZMN7; [1]",4.64
same,pKd,"RADIL, Q96JH8; [1]",below the threshold
same,pKd,"RHPN1, Q8TCX5; [1]",3.85
same,pKd,"TIAM2, Q8IVF5; [1]",below the threshold
"KKYVDAETSL [SLC4A7, Q9Y6M7]",pKd,"APBA2_2, Q99767; [1]",below the threshold
same,pKd,"ARHGAP21, Q5T5U3; [1]",below the threshold
same,pKd,"ARHGEF12, Q9NZN5-2; [1]",4.29
same,pKd,"DFNB31_3, Q9P202; [1]",below the threshold
same,pKd,"DLG1_1, Q12959; [1]",below the threshold
same,pKd,"DLG1_2, Q12959; [1]",3.56
same,pKd,"DLG2_2, Q15700; [1]",below the threshold
same,pKd,"DLG5_1, Q8TDM6; [1]",below the threshold
same,pKd,"GIPC2, Q8TF65; [1]",3.68
same,pKd,"GRASP, Q7Z6J2; [1]",3.73
same,pKd,"GRID2IP_1, A4D2P6; [1]",below the threshold
same,pKd,"Inadl_10, Q8NI35; [1]",below the threshold
same,pKd,"Inadl_2, Q8NI35; [1]",below the threshold
same,pKd,"Inadl_6, Q8NI35; [1]",3.71
same,pKd,"Inadl_8, Q8NI35; [1]",below the threshold
same,pKd,"LDB3, O75112; [1]",below the threshold
same,pKd,"LIN7B, Q9HAP6; [1]",3.53
same,pKd,"MAGI2_2, Q86UL8; [1]",3.77
same,pKd,"MPP2, Q14168; [1]",below the threshold
same,pKd,"NHERF3_1, Q5T2W1; [1]",5.38
same,pKd,"NHERF3_3, Q5T2W1; [1]",below the threshold
same,pKd,"NHERF4_1, Q86UT5-2; [1]",3.49
same,pKd,"PDLIM1, O00151; [1]",below the threshold
same,pKd,"PDZRN4_1, Q6ZMN7; [1]",4.8
same,pKd,"RADIL, Q96JH8; [1]",below the threshold
same,pKd,"RHPN1, Q8TCX5; [1]",4.28
same,pKd,"TIAM2, Q8IVF5; [1]",below the threshold
"ESLLLGPSNF [SHROOM4, Q9ULL8]",pKd,"APBA2_2, Q99767; [2]",below the threshold
same,pKd,"ARHGAP21, Q5T5U3; [2]",below the threshold
same,pKd,"ARHGEF12, Q9NZN5-2; [2]",below the threshold
same,pKd,"DFNB31_3, Q9P202; [2]",below the threshold
same,pKd,"DLG1_1, Q12959; [2]",below the threshold
same,pKd,"DLG1_2, Q12959; [2]",below the threshold
same,pKd,"DLG2_2, Q15700; [2]",below the threshold
same,pKd,"DLG5_1, Q8TDM6; [2]",below the threshold
same,pKd,"GIPC2, Q8TF65; [2]",below the threshold
same,pKd,"GRASP, Q7Z6J2; [2]",4.36
same,pKd,"GRID2IP_1, A4D2P6; [2]",below the threshold
same,pKd,"Inadl_10, Q8NI35; [2]",below the threshold
same,pKd,"Inadl_2, Q8NI35; [2]",below the threshold
same,pKd,"Inadl_6, Q8NI35; [2]",below the threshold
same,pKd,"Inadl_8, Q8NI35; [2]",3.57
same,pKd,"LDB3, O75112; [2]",below the threshold
same,pKd,"LIN7B, Q9HAP6; [2]",below the threshold
same,pKd,"MAGI2_2, Q86UL8; [2]",below the threshold
same,pKd,"MPP2, Q14168; [2]",below the threshold
same,pKd,"NHERF3_1, Q5T2W1; [2]",below the threshold
same,pKd,"NHERF3_3, Q5T2W1; [2]",below the threshold
same,pKd,"NHERF4_1, Q86UT5-2; [2]",below the threshold
same,pKd,"PDLIM1, O00151; [2]",below the threshold
same,pKd,"PDZRN4_1, Q6ZMN7; [2]",below the threshold
same,pKd,"RADIL, Q96JH8; [2]",below the threshold
same,pKd,"RHPN1, Q8TCX5; [2]",below the threshold
same,pKd,"TIAM2, Q8IVF5; [2]",3.49
"SDSSGQEYSL [KCTD3, Q9Y597]",pKd,"APBA2_2, Q99767; [2]",below the threshold
same,pKd,"ARHGAP21, Q5T5U3; [2]",below the threshold
same,pKd,"ARHGEF12, Q9NZN5-2; [2]",below the threshold
same,pKd,"DFNB31_3, Q9P202; [2]",below the threshold
same,pKd,"DLG1_1, Q12959; [2]",below the threshold
same,pKd,"DLG1_2, Q12959; [2]",below the threshold
same,pKd,"DLG2_2, Q15700; [2]",below the threshold
same,pKd,"DLG5_1, Q8TDM6; [2]",below the threshold
same,pKd,"GIPC2, Q8TF65; [2]",3.64
same,pKd,"GRASP, Q7Z6J2; [2]",below the threshold
same,pKd,"GRID2IP_1, A4D2P6; [2]",below the threshold
same,pKd,"Inadl_10, Q8NI35; [2]",below the threshold
same,pKd,"Inadl_2, Q8NI35; [2]",below the threshold
same,pKd,"Inadl_6, Q8NI35; [2]",below the threshold
same,pKd,"Inadl_8, Q8NI35; [2]",below the threshold
same,pKd,"LDB3, O75112; [2]",below the threshold
same,pKd,"LIN7B, Q9HAP6; [2]",below the threshold
same,pKd,"MAGI2_2, Q86UL8; [2]",below the threshold
same,pKd,"MPP2, Q14168; [2]",below the threshold
same,pKd,"NHERF3_1, Q5T2W1; [2]",3.8
same,pKd,"NHERF3_3, Q5T2W1; [2]",below the threshold
same,pKd,"NHERF4_1, Q86UT5-2; [2]",below the threshold
same,pKd,"PDLIM1, O00151; [2]",below the threshold
same,pKd,"PDZRN4_1, Q6ZMN7; [2]",below the threshold
same,pKd,"RADIL, Q96JH8; [2]",below the threshold
same,pKd,"RHPN1, Q8TCX5; [2]",below the threshold
same,pKd,"TIAM2, Q8IVF5; [2]",below the threshold
